The labels stand for the following.
B1: bsAb052 (bispecific antibody, not shown: small tags and cut ends; a dimerising Fc or GST)
heavy (part 1 of 2): QVQLVQSGAEVKKPGASVKLSCKASGYIFTRYYMYWVKQRPGQGLEWIGEINPNNGGTKFNEKFKNRATLTVDKSISTAYMELSRLRSDDTAVYYCSREDDYDGTPFAMDYWGQGTLVTVSS
heavy (part 2 of 2): GGGGSGGGGSGGGGSGGGGSQVQLVQSGVEVKKPGASVKVSCKASGYTFTNYYMYWVRQAPGQGLEWMGGINPSNGGTNFNEKFKNRVTLTTDSSTTTAYMELKSLQFDDTAVYYCARRDYRFDMGFDYWGQGTTVTVSSGGGGSGGGGSGGGGSGGGGSEIVLTQSPATLSLSPGERATLSCRASKGVSTSGYSYLHWYQQKPGQAPRLLIYLASYLESGVPARFSGSGSGTDFTLTISSLEPEDFAVYYCQHSRDLPLTFGGGTKVEIK
heavy: B1 heavy (part 2 of 2)
light: not shown
B2: bsAb056 (bispecific antibody, not shown: a dimerising Fc or GST; small tags and cut ends)
heavy 1: B1 heavy (part 2 of 2)
heavy 2: B1 heavy (part 1 of 2)
light: not shown
B3: bsAb031 (bispecific antibody)
heavy: not shown
light: EIVLTQSPATLSLSPGERATLSCRASKGVSTSGYSYLHWYQQKPGQAPRLLIYLASYLESGVPARFSGSGSGTDFTLTISSLEPEDFAVYYCQHSRDLPLTFGGGTKVEIKRTVAAPSVFIFPPSDEQLKSGTASVVCLLNNFYPREAKVQWKVDNALQSGNSQESVTEQDSKDSTYSLSSTLTLSKADYEKHKVYACEVTHQGLSSPVTKSFNRGEC
B4: bsAb006 (bispecific antibody)
heavy: QVQLVQSGVEVKKPGASVKVSCKASGYTFTNYYMYWVRQAPGQGLEWMGGINPSNGGTNFNEKFKNRVTLTTDSSTTTAYMELKSLQFDDTAVYYCARRDYRFDMGFDYWGQGTTVTVSSASTKGPSVFPLAPSSKSTSGGTAALGCLVKDYFPEPVTVSWNSGALTSGVHTFPAVLQSSGLYSLSSVVTVPSSSLGTQTYICNVNHKPSNTKVDKRVEPKSCDKTHTCPPCPAPEFEGGPSVFLFPPKPKDTLMISRTPEVTCVVVDVSHEDPEVKFNWYVDGVEVHNAKTKPREEQYNSTYRVVSVLTVLHQDWLNGKEYKCKVSNKALPASIEKTISKAKGQPREPQVYTLPPSREEMTKNQVSLTCLVKGFYPSDIAVEWESNGQPENNYKTTPPVLDSDGSFFLYSKLTVDKSRWQQGNVFSCSVMHEALHNHYTQKSLSLSPGGGGGSGGGGSGGGGSGGGGSDIQMTQSPSSLSASVGDRVTITCHASQNINVWLSWYQQKPGKAPKLLIYKASNLHTGVPSRFTGSGSGTDFTFTISSLQPEDIATYYCQQGQTYPYTFGQGTKLEIKGGGGSGGGGSGGGGSGGGGSQVQLVQSGAEVKKPGASVKLSCKASGYIFTRYYMYWVKQRPGQGLEWIGEINPNNGGTKFNEKFKNRATLTVDKSISTAYMELSRLRSDDTAVYYCSREDDYDGTPFAMDYWGQGTLVTVSS
light: B3 light
B5: bsAb002 (bispecific antibody)
heavy: QVQLVQSGVEVKKPGASVKVSCKASGYTFTNYYMYWVRQAPGQGLEWMGGINPSNGGTNFNEKFKNRVTLTTDSSTTTAYMELKSLQFDDTAVYYCARRDYRFDMGFDYWGQGTTVTVSSASTKGPSVFPLAPSSKSTSGGTAALGCLVKDYFPEPVTVSWNSGALTSGVHTFPAVLQSSGLYSLSSVVTVPSSSLGTQTYICNVNHKPSNTKVDKRVEPKSCDKTHTCPPCPAPEFEGGPSVFLFPPKPKDTLMISRTPEVTCVVVDVSHEDPEVKFNWYVDGVEVHNAKTKPREEQYNSTYRVVSVLTVLHQDWLNGKEYKCKVSNKALPASIEKTISKAKGQPREPQVYTLPPSREEMTKNQVSLTCLVKGFYPSDIAVEWESNGQPENNYKTTPPVLDSDGSFFLYSKLTVDKSRWQQGNVFSCSVMHEALHNHYTQKSLSLSPGGGGGSGGGGSGGGGSGGGGSQVQLVQSGAEVKKPGASVKLSCKASGYIFTRYYMYWVKQRPGQGLEWIGEINPNNGGTKFNEKFKNRATLTVDKSISTAYMELSRLRSDDTAVYYCSREDDYDGTPFAMDYWGQGTLVTVSSGGGGSGGGGSGGGGSGGGGSDIQMTQSPSSLSASVGDRVTITCHASQNINVWLSWYQQKPGKAPKLLIYKASNLHTGVPSRFTGSGSGTDFTFTISSLQPEDIATYYCQQGQTYPYTFGQGTKLEIK
light: B3 light
B6: bsAb032 (bispecific antibody)
heavy: not shown
light: B3 light
B7: bsAb068 (bispecific antibody)
heavy: QVQLVQSGVEVKKPGASVKVSCKASGYTFTNYYMYWVRQAPGQGLEWMGGINPSNGGTNFNEKFKNRVTLTTDSSTTTAYMELKSLQFDDTAVYYCARRDYRFDMGFDYWGQGTTVTVSSASTKGPSVFPLAPSSKSTSGGTAALGCLVKDYFPEPVTVSWNSGALTSGVHTFPAVLQSSGLYSLSSVVTVPSSSLGTQTYICNVNHKPSNTKVDKRVEPKSCDKTHTCPPCPAPEFEGGPSVFLFPPKPKDTLMISRTPEVTCVVVDVSHEDPEVKFNWYVDGVEVHNAKTKPREEQYNSTYRVVSVLTVLHQDWLNGKEYKCKVSNKALPASIEKTISKAKGQPREPQVYTLPPSREEMTKNQVSLTCLVKGFYPSDIAVEWESNGQPENNYKTTPPVLDSDGSFFLYSKLTVDKSRWQQGNVFSCSVMHEALHNHYTQKSLSLSPG
light: not shown
B8: bsAb009 (bispecific antibody)
heavy: B7 heavy
light: EIVLTQSPATLSLSPGERATLSCRASKGVSTSGYSYLHWYQQKPGQAPRLLIYLASYLESGVPARFSGSGSGTDFTLTISSLEPEDFAVYYCQHSRDLPLTFGGGTKVEIKRTVAAPSVFIFPPSDEQLKSGTASVVCLLNNFYPREAKVQWKVDNALQSGNSQESVTEQDSKDSTYSLSSTLTLSKADYEKHKVYACEVTHQGLSSPVTKSFNRGECGGGGSGGGGSGGGGSGGGGSQVQLVQSGAEVKKPGASVKLSCKASGYIFTRYYMYWVKQRPGQGLEWIGEINPNNGGTKFNEKFKNRATLTVDKSISTAYMELSRLRSDDTAVYYCSREDDYDGTPFAMDYWGQGTLVTVSSGGGGSGGGGSGGGGSGGGGSDIQMTQSPSSLSASVGDRVTITCHASQNINVWLSWYQQKPGKAPKLLIYKASNLHTGVPSRFTGSGSGTDFTFTISSLQPEDIATYYCQQGQTYPYTFGQGTKLEIK
B9: bsAb061 (bispecific antibody)
heavy: QVQLVQSGAEVKKPGASVKLSCKASGYIFTRYYMYWVKQRPGQGLEWIGEINPNNGGTKFNEKFKNRATLTVDKSISTAYMELSRLRSDDTAVYYCSREDDYDGTPFAMDYWGQGTLVTVSSASTKGPSVFPLAPSSKSTSGGTAALGCLVKDYFPEPVTVSWNSGALTSGVHTFPAVLQSSGLYSLSSVVTVPSSSLGTQTYICNVNHKPSNTKVDKRVEPKSCDKTHTCPPCPAPEFEGGPSVFLFPPKPKDTLMISRTPEVTCVVVDVSHEDPEVKFNWYVDGVEVHNAKTKPREEQYNSTYRVVSVLTVLHQDWLNGKEYKCKVSNKALPASIEKTISKAKGQPREPQVYTLPPSREEMTKNQVSLTCLVKGFYPSDIAVEWESNGQPENNYKTTPPVLDSDGSFFLYSKLTVDKSRWQQGNVFSCSVMHEALHNHYTQKSLSLSPG
light: not shown
B10: bsAb062 (bispecific antibody)
heavy: B9 heavy
light: not shown

Among the data in US20260265379A1 are Jurkat-Vy9Vo2 TCR MOP activation values, retold here.

Chain of BTN3A expressed at the cell surface (human), O00481 (O00481 30-513): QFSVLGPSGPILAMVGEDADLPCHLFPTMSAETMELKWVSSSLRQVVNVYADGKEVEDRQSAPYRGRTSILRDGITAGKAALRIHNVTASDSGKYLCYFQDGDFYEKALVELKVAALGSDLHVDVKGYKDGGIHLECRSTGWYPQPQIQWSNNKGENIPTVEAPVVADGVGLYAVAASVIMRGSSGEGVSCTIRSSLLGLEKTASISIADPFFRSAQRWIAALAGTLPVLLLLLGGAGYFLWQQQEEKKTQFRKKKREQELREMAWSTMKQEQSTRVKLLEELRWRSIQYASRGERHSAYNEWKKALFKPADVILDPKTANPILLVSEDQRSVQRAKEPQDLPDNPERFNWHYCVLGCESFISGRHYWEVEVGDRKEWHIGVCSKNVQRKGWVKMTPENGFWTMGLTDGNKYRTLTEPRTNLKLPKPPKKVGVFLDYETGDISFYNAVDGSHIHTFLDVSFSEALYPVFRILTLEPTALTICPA

This assay addresses BTN3A expressed at the cell surface (human), O00481. In words: cell-based or functional assay.
Molecule B1 showed a Jurkat-Vy9Vo2 TCR MOP activation at 0.5 nM (fold-change to medium) of 4.2 and a Jurkat-Vy9Vo2 TCR MOP activation at 5 nM (fold-change to medium) of 4.5.
The corresponding values for B2 are 7 and 10.
For B3 the same measures were 1.8 and 2.2.
In the case of B4, the Jurkat-Vy9Vo2 TCR MOP activation at 0.5 nM (fold-change to medium) amounted to 1 and the Jurkat-Vy9Vo2 TCR MOP activation at 5 nM (fold-change to medium) worked out at 1.
Consider B5, for which the Jurkat-Vy9Vo2 TCR MOP activation at 0.5 nM (fold-change to medium) stood at 1 and the Jurkat-Vy9Vo2 TCR MOP activation at 5 nM (fold-change to medium) was 1.
The molecule B6 had a Jurkat-Vy9Vo2 TCR MOP activation at 0.5 nM (fold-change to medium) of 0.9 and a Jurkat-Vy9Vo2 TCR MOP activation at 5 nM (fold-change to medium) of 1.
For B7 the same measures were 1.4 and 1.6.
Consider B8, for which the Jurkat-Vy9Vo2 TCR MOP activation at 0.5 nM (fold-change to medium) amounted to 1 and the Jurkat-Vy9Vo2 TCR MOP activation at 5 nM (fold-change to medium) was determined as 0.8.
B9 showed a Jurkat-Vy9Vo2 TCR MOP activation at 0.5 nM (fold-change to medium) of 3.7 and a Jurkat-Vy9Vo2 TCR MOP activation at 5 nM (fold-change to medium) of 5.4.
The corresponding values for B10 are 4.3 and 5.8.
